Assays:
T7-tagged Bcl-xL = biological target: T1, T7-tagged Bcl-xL (Homo sapiens, UniProt Q07817); assay: Co-immunoprecipitation of Flag-tagged Apaf-1 variants or procaspase-9 with T7-tagged Bcl-xL in 293 cells; assay type: binding; conditions: anti-Flag immunoprecipitation, anti-T7 blot, 36 hours, FIG. 16
T1 construct: expressed in transfected cells; host or cells: 293 cells
Description: In vivo interaction experiments between Apaf-1 variants and Bcl-xL were performed. To analyze the ability of Apaf-1 to interact with Bcl-xL, 293 cells were co-transfected with constructs encoding T7-tagged Bcl-xL and constructs encoding Flag-tagged Apaf-97 (FIG. 16, lane 1), Apaf-1 (FIG. 16, lane 2), Apaf-530 (FIG. 16, lane 3) Apaf-530ΔCARD (FIG. 16, lane 4), or procaspase-9 C287A (FIG. 16, lane 5). After 36 hours, extracts were prepared and immunoprecipitated with a monoclonal antibody to the Flag epitope. The immunoprecipitates (FIG. 16, upper panel) were analyzed by SDS-PAGE and immunoblotted with a horseradish peroxidase-conjugated T7 antibody. The corresponding cellular extracts were also analyzed by SDS-PAGE and immunoblotted with a horseradish peroxides-conjugated T7 antibody (FIG. 16, middle panel) or an anti-Flag antibody (FIG. 16, lower panel).

T7-tagged Apaf-530 = biological target: T2, T7-tagged Apaf-530 (Homo sapiens, UniProt O14727); assay: Co-immunoprecipitation of Flag-tagged Apaf-1 variants with T7-tagged Apaf-530 in 293 cells; assay type: binding; conditions: anti-Flag immunoprecipitation, anti-T7 blot, 36 hours, FIG. 11
T2 construct: expressed in transfected cells; host or cells: 293 cells
T2 sequence (O14727 1-530 isoform O14727-3): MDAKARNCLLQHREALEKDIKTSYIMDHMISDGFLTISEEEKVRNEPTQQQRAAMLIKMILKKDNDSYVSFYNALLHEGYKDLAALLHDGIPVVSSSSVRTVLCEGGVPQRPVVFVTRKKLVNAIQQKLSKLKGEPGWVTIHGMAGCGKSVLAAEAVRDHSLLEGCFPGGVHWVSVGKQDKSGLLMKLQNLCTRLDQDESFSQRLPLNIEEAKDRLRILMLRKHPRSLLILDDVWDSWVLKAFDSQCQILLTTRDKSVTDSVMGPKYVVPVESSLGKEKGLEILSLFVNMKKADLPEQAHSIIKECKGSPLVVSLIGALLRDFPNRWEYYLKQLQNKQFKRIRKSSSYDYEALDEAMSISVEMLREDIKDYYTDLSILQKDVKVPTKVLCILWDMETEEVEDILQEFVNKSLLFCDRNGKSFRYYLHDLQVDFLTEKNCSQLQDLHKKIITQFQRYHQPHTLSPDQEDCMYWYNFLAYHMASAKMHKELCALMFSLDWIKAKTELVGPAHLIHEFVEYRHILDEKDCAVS
Description: The ability of APAF-530 to oligomerize pro-caspase-9 was tested. Co-transfection experiments in 293 cells were performed with T7-tagged Apaf-530 and different Flag-tagged Apaf-1 variants, and cell lysates were prepared and immunoprecipitated with an anti-Flag antibody. The immunoprecipitates were analyzed by Western blotting with an anti-T7 antibody.
In FIG. 11, 293 cells were co-transfected with constructs encoding T7-tagged Apaf-530 and an empty vector (lane 1) or constructs encoding Flag-tagged Apaf-1 (lane 2), Flag-tagged Apaf-530 (lane 3), Flag-tagged Apaf-530ΔCARD (lane 4) or Flag-tagged Apaf-97 (lane 5). After 36 hours, extracts were prepared and immunoprecipitated with a monoclonal antibody to the Flag epitope. The immunoprecipitates (upper panel) were analyzed by SDS-PAGE and immunoblotted with a horseradish peroxides-conjugated T7 antibody. The corresponding cellular extracts were also analyzed by SDS-PAGE and immunoblotted with a horseradish peroxides-conjugated T7 antibody (middle panel) or an anti-Flag antibody (lower panel).

T1 sequence (Q07817 whole entry): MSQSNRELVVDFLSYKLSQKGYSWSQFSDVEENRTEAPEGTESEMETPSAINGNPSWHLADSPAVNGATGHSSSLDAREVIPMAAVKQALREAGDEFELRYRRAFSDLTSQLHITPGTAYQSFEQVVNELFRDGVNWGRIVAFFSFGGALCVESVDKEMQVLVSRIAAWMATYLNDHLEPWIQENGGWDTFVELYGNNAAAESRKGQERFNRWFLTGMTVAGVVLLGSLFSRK

B1: Apaf-1: full length Apaf-1, 1194 amino acids (protein)
chain: MDAKARNCLLQHREALEKDIKTSYIMDHMISDGFLTISEEEKVRNEPTQQQRAAMLIKMILKKDNDSYVSFYNALLHEGYKDLAALLHDGIPVVSSSSVRTVLCEGGVPQRPVVFVTRKKLVNAIQQKLSKLKGEPGWVTIHGMAGCGKSVLAAEAVRDHSLLEGCFPGGVHWVSVGKQDKSGLLMKLQNLCTRLDQDESFSQRLPLNIEEAKDRLRILMLRKHPRSLLILDDVWDSWVLKAFDSQCQILLTTRDKSVTDSVMGPKYVVPVESSLGKEKGLEILSLFVNMKKADLPEQAHSIIKECKGSPLVVSLIGALLRDFPNRWEYYLKQLQNKQFKRIRKSSSYDYEALDEAMSISVEMLREDIKDYYTDLSILQKDVKVPTKVLCILWDMETEEVEDILQEFVNKSLLFCDRNGKSFRYYLHDLQVDFLTEKNCSQLQDLHKKIITQFQRYHQPHTLSPDQEDCMYWYNFLAYHMASAKMHKELCALMFSLDWIKAKTELVGPAHLIHEFVEYRHILDEKDCAVSENFQEFLSLNGHLLGRQPFPNIVQLGLCEPETSEVYQQAKLQAKQEVDNGMLYLEWINKKNITNLSRLVVRPHTDAVYHACFSEDGQRIASCGADKTLQVFKAETGEKLLEIKAHEDEVLCCAFSTDDRFIATCSVDKKVKIWNSMTGELVHTYDEHSEQVNCCHFTNSSHHLLLATGSSDCFLKLWDLNQKECRNTMFGHTNSVNHCRFSPDDKLLASCSADGTLKLWDATSANERKSINVKQFFLNLEDPQEDMEVIVKCCSWSADGARIMVAAKNKIFLWNTDSRSKVADCRGHLSWVHGVMFSPDGSSFLTSSDDQTIRLWETKKVCKNSAVMLKQEVDVVFQENEVMVLAVDHIRRLQLINGRTGQIDYLTEAQVSCCCLSPHLQYIAFGDENGAIEILELVNNRIFQSRFQHKKTVWHIQFTADEKTLISSSDDAEIQVWNWQLDKCIFLRGHQETVKDFRLLKNSRLLSWSFDGTVKVWNIITGNKEKDFVCHQGTVLSCDISHDATKFSSTSADKTAKIWSFDLLLPLHELRGHNGCVRCSAFSVDSTLLATGDDNGEIRIWNVSNGELLHLCAPLSEEGAATHGGWVTDLCFSPDGKMLISAGGYIKWWNVVTGESSQTFYTNGTNLKKIHVSPDFKTYVTVDNLGILYILQTLE
modifications: left off: small tags and cut ends
notes: full length Apaf-1, 1194 amino acids
co-immunoprecipitation with Bcl-xL (T7-tagged Bcl-xL): capable of immunoprecipitating Bcl-xL | co-immunoprecipitation with T7-Apaf-530 (T7-tagged Apaf-530): co-immunoprecipitated
